The chains are these.
B1: CD81K13 HC 02-hVH_1_3 / LC 05-hVK_1_39 (antibody, V domains shown)
VH: QVQLVQSGAEVKKPGASVKVSCKASGYTFTDSYMHWVRQAPGQRLEWMGRIDTGNGNTKYSQKFQGRVTITTDTSASTAYMELSSLRSEDTAVYYCAPYGYGFHSWGQGTLVTVSS
VL: DIQMTQSPSSLSASVGDRVTITCRASENIYRTLAWYQQKPGKAPKLLIYAATTLASGVPSRFSGSGSGTDFTLTISSLQPEDFATYYCQHFWGTPWTFGQGTKVEIK
notes: human constant region
B2: CD81K13 HC 05-hVH_1_69 / LC 05-hVK_1_39 (antibody, V domains shown)
VH: QVQLVQSGAEVKKPGSSVKVSCKASGFNFKDSYLHWVRQAPGQGLEWMGRIDTGNGNVKFDPKFQGRVTITTDESTSTAYMELSSLRSEDTAVYYCVPYGYGFHSWGQGTLVTVSS
VL: B1 VL
notes: human constant region
B3: CD81K13 HC 02-hVH_1_3 / LC 06-hVK_1_39 (antibody, V domains shown)
VH: B1 VH
VL: B1 VL with A84G
notes: human constant region
B4: CD81K13 HC 02-hVH_1_3 / LC 5b-hVK_1_39 (antibody, V domains shown)
VH: B1 VH
VL: B1 VL with A50G, S56D
notes: human constant region
B5: CD81K13 HC 02-hVH_1_3 / LC 5b-hVK_1_39-GA (antibody, V domains shown)
VH: B1 VH
VL: B1 VL with A50G, S56D
notes: human constant region
B6: CD81K13 HC 05-hVH_1_69 / LC 5b-hVK_1_39-GA (antibody, V domains shown)
VH: B2 VH
VL: B1 VL with A50G, S56D
notes: human constant region
B7: CD81K13 HC 05-hVH_1_69 / LC 06-hVK_1_39 (antibody, V domains shown)
VH: B2 VH
VL: B1 VL with A84G
notes: human constant region
B8: CD81K13 HC 03-hVH_1_69 / LC 5b-hVK_1_39 (antibody, V domains shown)
VH: B2 VH with F60Y, D61A, P62Q, T72A, V97A
VL: B1 VL with A50G, S56D
notes: human constant region
B9: CD81K13 HC 03-hVH_1_69 / LC 5b-hVK_1_39-GA (antibody, V domains shown)
VH: B2 VH with F60Y, D61A, P62Q, T72A, V97A
VL: B1 VL with A50G, S56D
notes: human constant region
B10: CD81K13 HC 05-hVH_1_69 / LC 03-hVK_1_9 (antibody, V domains shown)
VH: B2 VH
VL: B1 VL with M4L, S10F, D70E
notes: human constant region
B11: CD81K13 HC 03-hVH_1_69 / LC 06-hVK_1_39 (antibody, V domains shown)
VH: B2 VH with F60Y, D61A, P62Q, T72A, V97A
VL: B1 VL with A84G
notes: human constant region
B12: CD81K13 HC 03-hVH_1_69 / LC 05-hVK_1_39 (antibody, V domains shown)
VH: B2 VH with F60Y, D61A, P62Q, T72A, V97A
VL: B1 VL
notes: human constant region
B13: CD81K13 HC 05-hVH_1_69 / LC 04-hVK_1_9 (antibody, V domains shown)
VH: B2 VH
VL: B1 VL with M4L, S10F, D70E, A84G
notes: human constant region
B14: CD81K13 HC 5b-hVH_1_69 / LC 03-hVK_1_9 (antibody, V domains shown)
VH: B2 VH with V11L, K12V
VL: B1 VL with M4L, S10F, D70E
notes: human constant region
B15: CD81K13 HC 03-hVH_1_69 / LC 04-hVK_1_9 (antibody, V domains shown)
VH: B2 VH with F60Y, D61A, P62Q, T72A, V97A
VL: B1 VL with M4L, S10F, D70E, A84G
notes: human constant region
B16: CD81K13 HC 03-hVH_1_69 / LC 03-hVK_1_9 (antibody, V domains shown)
VH: B2 VH with F60Y, D61A, P62Q, T72A, V97A
VL: B1 VL with M4L, S10F, D70E
notes: human constant region
B17: CD81K13 HC 05-hVH_1_69 / LC 5b-hVK_1_39 (antibody, V domains shown)
VH: B2 VH
VL: B1 VL with A50G, S56D
notes: human constant region
B18: CD81K13 HC 05-hVH_1_69 / LC CD81K13 (antibody, V domains shown)
VH: B2 VH
VL: DIQMTQSPASLSVSVGETVTITCRASENIYRTLAWYLQKQGKSPQLLVYGATTLADGVPSRFSGSGSGTQYYLKINSLQSEDFGTYHCQHFWGTPWTFGGGTKVEIK
notes: human constant region
B19: CD81K13 HC 05-hVH_1_69 / LC 1c-hVK_3_15 (antibody, V domains shown)
VH: B2 VH
VL: EIVMTQSPATLSVSPGERATLSCRASENIYRTLAWYQQKPGQAPRLLIYGATTLADGIPARFSGSGSGTEFTLTISSLQSEDFGVYYCQHFWGTPWTFGQGTKVEIK
notes: human constant region
B20: CD81K13 HC 06-hVH_1_3 / LC CD81K13 (antibody, V domains shown)
VH: B1 VH with T30K, M34L, T58V, Y60F, S61D, Q62P
VL: B18 VL
notes: human constant region
B21: CD81K13 HC 5b-hVH_1_69 / LC 1c-hVK_3_15 (antibody, V domains shown)
VH: B2 VH with V11L, K12V
VL: B19 VL
notes: human constant region
B22: CD81K13 HC 07-hVH_1_3 / LC CD81K13 (antibody, V domains shown)
VH: B2 VH with S16A, F27Y, N28T, E74T, T76A, V97A
VL: B18 VL
notes: human constant region
B23: CD81K13 HC 5b-hVH_1_69 / LC 1b-hVK_3_15 (antibody, V domains shown)
VH: B2 VH with V11L, K12V
VL: B19 VL with G84A
notes: human constant region
B24: CD81K13 HC 5b-hVH_1_69-GA / LC CD81K13 (antibody, V domains shown)
VH: B2 VH with V11L, K12V
VL: B18 VL
notes: human constant region
B25: CD81K13 HC 07-hVH_1_3 / LC 1b-hVK_3_15 (antibody, V domains shown)
VH: B2 VH with S16A, F27Y, N28T, E74T, T76A, V97A
VL: B19 VL with G84A
notes: human constant region
B26: CD81K13 HC 5b-hVH_1_69-GA / LC 1c-hVK_3_15 (antibody, V domains shown)
VH: B2 VH with V11L, K12V
VL: B19 VL
notes: human constant region
B27: CD81K13 HC 07-hVH_1_3 / LC 1c-hVK_3_15 (antibody, V domains shown)
VH: B2 VH with S16A, F27Y, N28T, E74T, T76A, V97A
VL: B19 VL
notes: human constant region
B28: CD81K13 HC 06-hVH_1_3 / LC 1c-hVK_3_15 (antibody, V domains shown)
VH: B1 VH with T30K, M34L, T58V, Y60F, S61D, Q62P
VL: B19 VL
notes: human constant region
B29: CD81K13 HC 06-hVH_1_3 / LC 1b-hVK_3_15 (antibody, V domains shown)
VH: B1 VH with T30K, M34L, T58V, Y60F, S61D, Q62P
VL: B19 VL with G84A
notes: human constant region
B30: CD81K13 HC 05-hVH_1_69 / LC 01-hVK_3_15 (antibody, V domains shown)
VH: B2 VH
VL: B19 VL with L54R, D56T
notes: human constant region
B31: CD81K13 HC 5b-hVH_1_69-GA / LC 1b-hVK_3_15 (antibody, V domains shown)
VH: B2 VH with V11L, K12V
VL: B19 VL with G84A
notes: human constant region
B32: CD81K13 HC 03-hVH_1_69 / LC 1b-hVK_3_15 (antibody, V domains shown)
VH: B2 VH with F60Y, D61A, P62Q, T72A, V97A
VL: B19 VL with G84A
notes: human constant region
B33: CD81K13 HC 03-hVH_1_69 / LC 1c-hVK_3_15 (antibody, V domains shown)
VH: B2 VH with F60Y, D61A, P62Q, T72A, V97A
VL: B19 VL
notes: human constant region
B34: CD81K13 HC 5b-hVH_1_69 / LC CD81K13 (antibody, V domains shown)
VH: B2 VH with V11L, K12V
VL: B18 VL
notes: human constant region
B35: CD81K13 HC 5b-hVH_1_69 / LC 01-hVK_3_15 (antibody, V domains shown)
VH: B2 VH with V11L, K12V
VL: B19 VL with L54R, D56T
notes: human constant region
B36: CD81K13 HC 06-hVH_1_3 / LC 01-hVK_3_15 (antibody, V domains shown)
VH: B1 VH with T30K, M34L, T58V, Y60F, S61D, Q62P
VL: B19 VL with L54R, D56T
notes: human constant region
B37: CD81K13 HC 03-hVH_1_69 / LC CD81K13 (antibody, V domains shown)
VH: B2 VH with F60Y, D61A, P62Q, T72A, V97A
VL: B18 VL
notes: human constant region
B38: CD81K13 HC 07-hVH_1_3 / LC 01-hVK_3_15 (antibody, V domains shown)
VH: B2 VH with S16A, F27Y, N28T, E74T, T76A, V97A
VL: B19 VL with L54R, D56T
notes: human constant region
B39: CD81K13 HC 5b-hVH_1_69-GA / LC 01-hVK_3_15 (antibody, V domains shown)
VH: B2 VH with V11L, K12V
VL: B19 VL with L54R, D56T
notes: human constant region
B40: CD81K13 HC 05-hVH_1_69 / LC 1b-hVK_3_15 (antibody, V domains shown)
VH: B2 VH
VL: B19 VL with G84A
notes: human constant region
B41: CD81K13 HC 03-hVH_1_69 / LC 01-hVK_3_15 (antibody, V domains shown)
VH: B2 VH with F60Y, D61A, P62Q, T72A, V97A
VL: B19 VL with L54R, D56T
notes: human constant region

Where a chain is given by its changes, count along the chain named.
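Note: antibody binding to HuH7 cells expressing CD81 versus a CD81-negative HuH7 control line, bound antibody detected by secondary reagent, absorbance at 450 nm with 620 nm reference.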

This experiment addresses T1, CD81 (UniProt P60033 1-236, limits assumed).
T1 construct: whole, on cells; also called CD81 receptor
T1 sequence (looked up): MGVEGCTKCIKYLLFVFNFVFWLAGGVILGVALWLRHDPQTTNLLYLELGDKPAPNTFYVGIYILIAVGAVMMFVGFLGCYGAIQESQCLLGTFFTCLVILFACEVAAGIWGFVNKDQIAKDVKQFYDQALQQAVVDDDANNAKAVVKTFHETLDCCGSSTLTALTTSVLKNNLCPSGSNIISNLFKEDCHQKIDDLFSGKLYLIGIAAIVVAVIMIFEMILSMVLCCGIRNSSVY
The experiment can be described thus: cell ELISA. (In general: In an ELISA, binding on a coated surface is turned into a signal by an enzyme label.)
Description: For the binding cell ELISA assay, HuH7-Rluc-H3 (positive cell line expressing CD81) and HuH7-Rluc-L1 (negative control cell line) were propagated in F-12 DMEM medium with 10% FCS at 37° C. and 5% CO₂. On day 1, the cells were trypsinized at approximately 90% confluence and resuspended at 4×10⁵ cells/mL. […] On day 2, the antibody samples to be tested were prepared in a separate polypropylene round bottom plate with a twofold desired concentration with a final volume of 120 μl. All of the assay samples were diluted in cell culture medium. […] After fixation, each well was washed 3 times with 200 μL PBS/0.05% Tween. The secondary incubation step for detection of bound anti-CD81 antibodies was performed for 2 h at room temperature on a reciprocal shaker. […] Each well was washed three times with 200 μL PBS/0.05% Tween to remove unbound antibodies. […] The absorbance was read using the ELISA Tecan reader at 450 nm with 620 nm reference wavelength.
In the case of B1, the ELISA data turned out to be 0.161. As to B2, the ELISA data was determined as 0.91. In turn, B3 had an ELISA data of 0.251. For B4, the ELISA data was 0.29. As for B5, the figure is 0.247; as for B6, 0.551; as for B7, 0.603. For B8, the ELISA data turned out to be 0.546.

In turn, B9 yielded an ELISA data of 0.552. Turning to B10, the ELISA data was determined as 0.787. Under B11 stands 0.484; under B12, 0.525.

For B13, the ELISA data worked out at 0.685. B14 displayed an ELISA data of 0.73. With B15, the ELISA data stood at 0.188. Turning to B16, the ELISA data came out at 0.208. As for B17, the figure is 0.692. In turn, B18 gave an ELISA data of 0.94. On to B19, for which the ELISA data came out at 0.767. In the case of B20, the ELISA data came to 0.447.

In turn, B21 returned an ELISA data of 0.701. As for B22, the figure is 0.572; as for B23, 0.646; as for B24, 0.935.

With B25, the ELISA data was 0.367.

As to B26, the ELISA data was 0.794.

Consider B27, for which the ELISA data came to 0.337. As for B28, the figure is 0.34; as for B29, 0.394. The molecule B30 returned an ELISA data of 0.684. In the case of B31, the ELISA data was 0.648.

Regarding B32, the ELISA data amounted to 0.403. Under B33 stands 0.252; under B34, 0.813. B35 showed an ELISA data of 0.749.

Regarding B36, the ELISA data worked out at 0.547.

B37 yielded an ELISA data of 0.787. B38 yielded an ELISA data of 0.459.

The molecule B39 yielded an ELISA data of 0.739. As for B40, the figure is 0.624; as for B41, 0.649.

For the origin of these results see US20200377590A1 (Hoffmann-La Roche, published 2020).
